Reference: the domain aggregation screens of Martell et al. (2025)

Assay: soluble fraction after stress (log2 fold change); higher = more stays soluble; pooled small domains, quantitative proteomics
Details: stress: 50 degC
In short: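 Each library was heated to 50°C as a stress step. The libraries, made up of small protein domains, were pooled and analysed at high throughput by quantitative proteomics. The reported value is the base-two logarithm of the fold change in each protein's soluble amount after stress, taken as a measure of aggregation propensity. The higher the value, the more protein stays in solution.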

Sequence | soluble fraction (log2)
HMSKIVPVAYSQFLKDVKNGNVSQVEIRGNNIKGINNNGSSFSTYAPNDLSLIDKLEKSNVEIIVMPLE | -0.125
HMSKKLLVLQTSDDAKAKDVLSQNGYQLDDGDKLSIIETEQTKMADVIKLLSDNAIDIEDVQHVH | 0.217
HMSKLQETEIPVALEVEKIPGLSNELKQKLLKIKPQTIGQASRISGITPAAISILMIYIKKNESISAVK | -1.57
HMSKLQKTKYAGVYFTEDTQTRVKTYVARIVLAGIIDTEVVVGHSNDQHRTNAAIAYQRRLELIQEAKN | -3.86
HMSKLSLREIVKKFEEQIIQLHKRGLNHSEISREIVTKNSIDLGDSHIDSLRRAISVHLQTP | -0.0999
HMSKPIREVAYETLKNAIVTGEIPAGSRIVETEYAERMHISRTPLREALRKLERDGLVEYVVRRGVVVRAF | -1.54
HMSKPTLTLKSNAYPYNLNGERINNYLGFTYIKKGATLNYQGSKRINGQNYYYIGDGAYIKNTTVGSTNN | -1.51
HMSKQDRRIRRTRRLLKESLIQLMQEKEFMNISVREVTERADLNRGTFYLHYQDTRHLLQDIENETL | -3.25
HMSKQEFVDRLRVSLSGKISPASVEDNARYYEDYINTHIRLGEPEEDVLEGLGDPRLIARSIVAAESV | 0.0896
HMSKQLGFKIKTARRKLNISQGDLSKKLEISPSYLNLIESGKRKVSTDLLMKASEILNLDLKKL | -0.281
HMSKQQFLDELAARLREEGAELLVAENLNFYRSYIEEEVAKGRSEEEVLAELGNPALIARSILDAAGF | -0.153
HMSKSIELMNEIKKYIEEYYLQYRQSPSTTKIAEAVGIARGTAYKYLVEMSERNMIEYDGQEISTEVTRKY | -0.0213
HMSKSKSEIDKDPHFWSSLFQRIGEGESLRKIAKDSKIPKSTLWAWIRNDPQLALRYSEAQQ | 0.064
HMSLAATLSPREIDTVRLIAVGSSNKEIARQLGIAETTVKIHVQHILRKLNLTSRVQVAVFANAEGII | -0.801
HMSLAISGRNQLHGIIEEVRSDGLLSQIYLRVGDQVLTAVITRDAVAELKLKRGDTAVAIMKSTEVMIARE | 0.147
HMSLDLERAVALLSLPRPVGNHPEDGELVEAGIGRYGPYVKHGSKYANLPDADEVFTIGMNRAVEVLAAK | -0.0399
HMSLDTASDKELLGLIVSEPIATRVLDAFRTLDATLFRTTPAELAAAAGVSSEHAQKIKAVAEIAARMLKP | -0.377
HMSLEDYVIIKNKTVKVYETEFDGAPVVTSSSVGQKLILVEYNDNFAKILYRAKDGLDYVGYIKRKDVYVR | -2.4
HMSLLLTPREASVWASEYLGKKVTSNNIIYLLNYGKIANHSTDLKENLIDKNELKIYYDSTIKSQKH | -0.216
HMSLLQDRQRHEALAALGYYRGSVSAAWGAASVEALKAAQAALGVEVDGKWGPKTEDVIQAALGT | -0.00704
HMSLLQTRQRHEALAALGFFKGDVAAEWSAASTEALRAAQASLGIRVDGKWGPQTEDAIGKALAERQG | -0.102
HMSLLTIDELSQATGVSVRTLRYYVSSGVLDKPTGETRNARYGTHHLDQVRNIKKLQEEGLTLNRILEIKK | -1.65
HMSLNHDIWVQELKEKRSGYGISQSRLAIAAGMTRQYLSDIETGKVLPSAERKAAITEALERFNPD | -0.368
HMSLNNAHNTIFPRIIELMEMKQLENVLLIGGGIIPRKDIESLESSGVTKLYGPGTPVKETIEFITNWVK | -0.268
HMSLPKVLVPTDITVSQLAKYLEVDAIAIVKKLFGLGVVASLNQRLENEQMQLLGQEFGKDIIFTEN | -0.438

Sequence | soluble fraction (log2)
HMSLPTSDWKRALSLFDEALSLPPDARDAWLAHTIAREPAVSPLLQKLLGAHRRVETNDILATLPR | -0.286
HMSLQNTMANFAGGVLVLFLKPFKAGDYIVTKDGEGTVASIGLVYTTLLTIENKRIVIPNSSISNSPITN | 0.0055
HMSLRGEKTYDEAHQKLIKSAVELFKNPLVSPEKITVSQIAKHAGVSVATAYNHFPENKLDIYGSIF | -0.071
HMSLRVIEIFGTPQQMSARISLMDGSVTDVKVGQSIPGTSYKVASITGNGVWIQNGTAVSYTHL | -1.3
HMSLSDADVERLLEVAIDIESLEEREGLYYQANESEPYSGWGKLMYDSGQVERLVPYKDGRWEGLWTIW | -1.04
HMSLSISSLVFFRKNAGLTQADIATAMSITQSAVARLEKRLLSDSDVTLKTLERYAEAVGIRMHVDFEP | -0.0207
HMSLSKEEFETISKQVLELAGAGPIPVKELLQKMERTSKEKAWKVIEFLQAEDKIVPDATGRIQL | -0.068
HMSLSKQETEFLTTFSASGKRVFTYQQATDYWQSKVAATNVLGRLVRKGWLQRLERGLYMIIPLEAGPERF | -0.853
HMSLSPAATRSRGYPSVLLTMKAPERLVSAAGPDRRAYLVGTDPLVIELPGVKGLYKVDPDQIVFE | 0.0566
HMSLTEEQVDSGLKEIRLALLEADVALPVVKNFITNIKPKAIGQEIIRSTSPGQMIVKIVYDELVSIL | -0.0891
HMSLTEESAKSLIGLTENEAVKVAAERGWTVRVAMRDGEAFMLTQDYSENRVNLTVMKTLVTAVTI | -0.273
HMSLTMPKLIGMHLFQAERTLNYYGFQYKVEGPDSASVVIDQYPKEGVTVDPHYPITLKIGPSA | -0.158
HMSLYGGYEIDIIKEEVVDAGIKLLRRRVIVADQRGISVYEGKPTFASDDQVLIKEGQYQIDKLG | -2.63
HMSMHVHTPNPDFKPSNTNALQEGQLVEHPKFGFGKVQKIETEGLNKKASIQFEHFGEKTLLLSFAKLRII | 0.0178
HMSMLGTEQRVLVLGPARKGEGFLMARTDNNRIVNFEGPLSLVDTMVRVKVTDVYPHSLGGQLL | -1.55
HMSMPDERMLTSWMMARVKAAGKTMTRDAWNEFFERSNDSMDHMDMEMEKLLSYVYDKDGITLEDVEA | -0.394
HMSMQIILLDKVVNLGGLGDVVKVKDGYARNYLIPQGKAKRANTANLAEFEARRVELERLAAEQLAQAQA | 0.0814
HMSMRIDTNTLNYYVQNAQISLSVLRTKINNLDQFLSGEKQPTFNQLSEIAKKINVPTGLLLLNKS | -1.45
HMSMSKISNLLEIMMIIQYKGLTTASELAQSLGVDKKTVYRYINSLSKANIPIYTKKGRYGGFYIDKNF | -1.19
HMSMSTVGERIKKKRKNLNFTQQELAAKLNISAQAVSKWENGVALPDLGLMPKLAQVLESTVDGLLGYQGA | 0.0315
HMSMTLSVLDDVRGLSESRRKQLFHSFGSIKKLREQSKETLMSIPYLPEKVALELYDKLHEE | -0.218
HMSMVGSVNKQGRPFALLRVDNLLYQVKVGDYLGQNYGRITQIDETQIALREIVQDAAGEWIERPGVLQL | 0.00588
HMSNATELVYDDGRKLLISYETLVGGYHPDLGWIRTAKTYSISTDKHIRNYFNNVTNPRVVGEDILETLKI | 0.0667
HMSNDRSYLARLQDYYAEHRALPSYASIGALLGLRSKSSVAALVARLKLAGFVESTPDRRLAPTRRFF | -3.24
HMSNEWIEISAKTVDDAINEGLIRLGTTTDKMDVEVLEKESAGFLGFIGKHDAKIRVRFKEV | 0.105

Sequence | soluble fraction (log2)
HMSNGYVTAKTTVNVRKSASESGERLGVIYQGDKLELVMNQADGWTKVKYKGQTAYVKSEFM | -0.6
HMSNHYETLGVPRDASQEDIKRAYRRLARKLHPDVAGPGKAEEFKAVNEAYAVLSDEESRRMYDLGGDDAL | 0.146
HMSNIQLVENLYRLRKAHHYTQQEISDLLNISRQAYSNYETSKRTPDLDSLMRLADIYGVSLDQLVNHP | -1.45
HMSNLENSLNESLSLLKSNKYNEALEILKKIEIEDSRVFFLLGTIYSVMKNINLGEEFLIKASK | -1.48
HMSNLGLQIVRTLTDAGKGVVFITHKLKEALTIADRINVLRRGKVVGDADPKTASESQIAEMMVGRPVQL | -0.144
HMSNMWVWSKLSGIQWMDAWEDRFHGNPNTVITRLKTNKTVRVEVYTETEQEALDIKKLFGGSIRKLV | -2.96
HMSNRFIQFRQRAIDWLNSDRDFNAGILLLEESGFKPGVVAKLKRHGVNGPEAKKRLKFLINELVKAWA | -0.0824
HMSNVKVYPNPTSGKLTIDAENYKGVEVYDTSGRLIVKSELRTIDLEEQSKGLYLLKVNANGTTQEFKVFK | 0.0145
HMSNYLKSVEVFDPITNKWSYVSAMKVRRGYVAVVATMDRLYAIGGYDGENYLSTVEMYNPDTN | 0.0631
HMSPAVSLITGKLGAETYYKQGLKKAKEKDYEGALDDLIKAYEFFPDKKIKTQVDKLASFLGKPPIL | 0.0669
HMSPIKAGDLVKITGTKYYRGQTIPSWVKAKNWFVHSVSGDRAVINKSEDGKNAIMSPVKVSNLALVT | -0.0334
HMSPILTPDQATKAYGKDGVLYIHSNKERTIYIYDVTGRTVRILEAVEGENQINGLEKGIYFLEGQKVAV | -0.233
HMSPLQLGNYNTLRITRFTDHGAYLDGGDVGEILMPKTYVLPEMKPGDEVRVFVYLDQEERLVGTTET | -0.017
HMSPPVIQQGQDVRLIYKGTGFAVSNEGKALNTAADGQVARARTGGGQTVSGIARPGGIIEIT | 0.308
HMSPQPPNQEAVRTRILDQAAHLFLTIGYAETTVRRIAGAVGIKAASLYHHFGSKDEVFESILIR | 0.0413
HMSPRADRSVNLDVGETVQIDDWGADGTAQIRYRGAPWTAVLRPGHTPHPGPHRVIELVGSRLLVEP | -0.0121
HMSPRAIYVTTSDLNMRMQPSPNAYKRGVAPRGTELLVVEWGDDWSKVIFEGDTAYAASRYLSYVKDEP | -0.487
HMSQDEVVADMKADLGPDADNIIRSNIQWADGLVRKGILTESEREELDVMGGTPEAQRILVKLRTMQG | 0.0777
HMSQDTLIENGKVFLIHKVVAGQTLYGLSKAYNITIEDIIKYNPQAENGIKIGEDIKIFLKEE | -0.432
HMSQEHTVPDYKDMEATVVYADLTQKGLNYEIAQETSPTIKEGNVTQTIPGMNEKVVSGDTITVFVSTGTG | 0.193
HMSQIDLQIGHKIKSKRRKLGISQADMAKKLYISPSYLNLIESGKRKINVDLLLKLSNELGIEMSDIS | -0.478
HMSQIILSARSGHAALRHRLGELGYTFADKEFDDIYERFLEVADQKKEVYDEDLESIVQERQRD | 0.0537
HMSQITEADYIPNTDKTWGELMEETGESLPNLVERYNNEMTKSNGKEQPQSIIQRIIEDYQMVS | 0.0384
HMSQLSDEQELRDIARGIIEGNPNEAEKYRAGRTGLLGFFVGKLMAETEGKANPRLASRILKELLE | -0.0477
HMSQLSQIVDAFGGLRPFARALNKPPSTVQYWIEKGGIPASVVSPIMKLSEEKGLGLSRDQVSAAVS | 0.157
